Biological target: T1, GFP-tagged Sec23 (UniProt Q15436 1-765)
T1 construct: Sec23a; plasmid YFP-Sec23a was a gift; The results and legends call it GFP-tagged Sec23; the only Sec23 plasmid named in the methods is YFP-Sec23a; also called GFP-Sec23; YFP-Sec23a; source: HEK293, transfected, in lysate
Assay: co-IP; HEK293 cells co-transfected with FLAG-tagged Sec31 (WT or mutants) and GFP-tagged Sec23 or GFP-Sec13; GFP-tagged protein immunoprecipitated with anti-GFP beads, blot with anti-FLAG; 10 mM HEPES-KOH pH 7.4, 100 mM KCl, 0.1 mM DTT, 2.5 mM MgCl2, 1% Triton X-100, 30 min at 4°C; in Figure 6 cells transfected two days before with or without siRNA1 to CK2 alpha1
Conditions: partners not purified

T1 sequence (Q15436 whole entry): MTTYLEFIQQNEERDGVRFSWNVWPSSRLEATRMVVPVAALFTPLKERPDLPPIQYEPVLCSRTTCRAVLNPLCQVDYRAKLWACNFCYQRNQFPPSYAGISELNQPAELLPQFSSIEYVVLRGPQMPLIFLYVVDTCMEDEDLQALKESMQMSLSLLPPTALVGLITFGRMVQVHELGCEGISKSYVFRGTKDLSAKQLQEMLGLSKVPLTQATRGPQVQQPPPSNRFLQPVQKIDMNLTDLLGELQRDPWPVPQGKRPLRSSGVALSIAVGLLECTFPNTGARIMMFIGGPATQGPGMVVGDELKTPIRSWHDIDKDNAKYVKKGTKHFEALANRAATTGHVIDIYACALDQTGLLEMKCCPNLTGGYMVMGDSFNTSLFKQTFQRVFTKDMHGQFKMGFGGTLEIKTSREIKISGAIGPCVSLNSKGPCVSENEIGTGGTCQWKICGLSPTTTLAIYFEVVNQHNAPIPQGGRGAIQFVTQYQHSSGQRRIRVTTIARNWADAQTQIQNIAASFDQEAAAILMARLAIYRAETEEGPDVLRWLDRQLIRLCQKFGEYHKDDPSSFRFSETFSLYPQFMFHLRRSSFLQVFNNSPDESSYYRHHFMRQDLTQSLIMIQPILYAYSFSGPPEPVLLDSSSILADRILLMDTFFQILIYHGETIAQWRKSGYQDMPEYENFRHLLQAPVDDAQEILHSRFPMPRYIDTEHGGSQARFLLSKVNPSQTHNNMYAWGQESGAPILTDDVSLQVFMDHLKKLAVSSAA

Row | fold change of Sec31 co-precipitated with Sec23, CK2 depleted by siRNA1 against not depleted | fold change of Sec31 co-precipitated with Sec23 against wild type | Binder
1 | ~3 fold |  | FLAG-tagged wild type (WT) Sec31 (natural protein, human, UniProt O94979 1-1220, looked up, Sec31a, human, cDNA clone KIAA 0905 from Kazusa DNA Research Institute, subcloned into p3×FLAG-CMV; In the cells partly phosphorylated (S527, S799, S1163, T1165 found by mass spectrometry on endogenous Sec31); also called FLAG-Sec31; human Sec31a; source: HEK293, transfected, in lysate) MKLKEVDRTAMQAWSPAQNHPIYLATGTSAQQLDATFSTNASLEIFELDLSDPSLDMKSCATFSSSHRYHKLIWGPYKMDSKGDVSGVLIAGGENGNIILYDPSKIIAGDKEVVIAQNDKHTGPVRALDVNIFQTNLVASGANESEIYIWDLNNFATPMTPGAKTQPPEDISCIAWNRQVQHILASASPSGRATVWDLRKNEPIIKVSDHSNRMHCSGLAWHPDVATQMVLASEDDRLPVIQMWDLRFASSPLRVLENHARGILAIAWSMADPELLLSCGKDAKILCSNPNTGEVLYELPTNTQWCFDIQWCPRNPAVLSAASFDGRISVYSIMGGSTDGLRQKQVDKLSSSFGNLDPFGTGQPLPPLQIPQQTAQHSIVLPLKKPPKWIRRPVGASFSFGGKLVTFENVRMPSHQGAEQQQQQHHVFISQVVTEKEFLSRSDQLQQAVQSQGFINYCQKKIDASQTEFEKNVWSFLKVNFEDDSRGKYLELLGYRKEDLGKKIALALNKVDGANVALKDSDQVAQSDGEESPAAEEQLLGEHIKEEKEESEFLPSSGGTFNISVSGDIDGLITQALLTGNFESAVDLCLHDNRMADAIILAIAGGQELLARTQKKYFAKSQSKITRLITAVVMKNWKEIVESCDLKNWREALAAVLTYAKPDEFSALCDLLGTRLENEGDSLLQTQACLCYICAGNVEKLVACWTKAQDGSHPLSLQDLIEKVVILRKAVQLTQAMDTSTVGVLLAAKMSQYANLLAAQGSIAAALAFLPDNTNQPNIMQLRDRLCRAQGEPVAGHESPKIPYEKQQLPKGRPGPVAGHHQMPRVQTQQYYPHGENPPPPGFIMHGNVNPNAAGQLPTSPGHMHTQVPPYPQPQPYQPAQPYPFGTGGSAMYRPQQPVAPPTSNAYPNTPYISSASSYTGQSQLYAAQHQASSPTSSPATSFPPPPSSGASFQHGGPGAPPSSSAYALPPGTTGTLPAASELPASQRTGPQNGWNDPPALNRVPKKKKMPENFMPPVPITSPIMNPLGDPQSQMLQQQPSAPVPLSSQSSFPQPHLPGGQPFHGVQQPLGQTGMPPSFSKPNIEGAPGAPIGNTFQHVQSLPTKKITKKPIPDEHLILKTTFEDLIQRCLSSATDPQTKRKLDDASKRLEFLYDKLREQTLSPTITSGLHNIARSIETRNYSEGLTMHTHIVSTSNFSETSAFMPVLKVVLTQANKLGV
2 |  | 3 fold | FLAG-tagged Sec31 S527A/S799A (natural protein, human, UniProt O94979 1-1220, looked up, Sec31a, human, cDNA clone KIAA 0905, point mutations by QuikChange; also called S527/S799; source: HEK293, transfected, in lysate) MKLKEVDRTAMQAWSPAQNHPIYLATGTSAQQLDATFSTNASLEIFELDLSDPSLDMKSCATFSSSHRYHKLIWGPYKMDSKGDVSGVLIAGGENGNIILYDPSKIIAGDKEVVIAQNDKHTGPVRALDVNIFQTNLVASGANESEIYIWDLNNFATPMTPGAKTQPPEDISCIAWNRQVQHILASASPSGRATVWDLRKNEPIIKVSDHSNRMHCSGLAWHPDVATQMVLASEDDRLPVIQMWDLRFASSPLRVLENHARGILAIAWSMADPELLLSCGKDAKILCSNPNTGEVLYELPTNTQWCFDIQWCPRNPAVLSAASFDGRISVYSIMGGSTDGLRQKQVDKLSSSFGNLDPFGTGQPLPPLQIPQQTAQHSIVLPLKKPPKWIRRPVGASFSFGGKLVTFENVRMPSHQGAEQQQQQHHVFISQVVTEKEFLSRSDQLQQAVQSQGFINYCQKKIDASQTEFEKNVWSFLKVNFEDDSRGKYLELLGYRKEDLGKKIALALNKVDGANVALKDSDQVAQADGEESPAAEEQLLGEHIKEEKEESEFLPSSGGTFNISVSGDIDGLITQALLTGNFESAVDLCLHDNRMADAIILAIAGGQELLARTQKKYFAKSQSKITRLITAVVMKNWKEIVESCDLKNWREALAAVLTYAKPDEFSALCDLLGTRLENEGDSLLQTQACLCYICAGNVEKLVACWTKAQDGSHPLSLQDLIEKVVILRKAVQLTQAMDTSTVGVLLAAKMSQYANLLAAQGSIAAALAFLPDNTNQPNIMQLRDRLCRAQGEPVAGHEAPKIPYEKQQLPKGRPGPVAGHHQMPRVQTQQYYPHGENPPPPGFIMHGNVNPNAAGQLPTSPGHMHTQVPPYPQPQPYQPAQPYPFGTGGSAMYRPQQPVAPPTSNAYPNTPYISSASSYTGQSQLYAAQHQASSPTSSPATSFPPPPSSGASFQHGGPGAPPSSSAYALPPGTTGTLPAASELPASQRTGPQNGWNDPPALNRVPKKKKMPENFMPPVPITSPIMNPLGDPQSQMLQQQPSAPVPLSSQSSFPQPHLPGGQPFHGVQQPLGQTGMPPSFSKPNIEGAPGAPIGNTFQHVQSLPTKKITKKPIPDEHLILKTTFEDLIQRCLSSATDPQTKRKLDDASKRLEFLYDKLREQTLSPTITSGLHNIARSIETRNYSEGLTMHTHIVSTSNFSETSAFMPVLKVVLTQANKLGV

From publication PMC3548793, “CK2 Phosphorylates Sec31 and Regulates ER-To-Golgi Trafficking” (PLoS ONE, 2013)
